Experimental data published in publication PMC5564220 (Cell reports, 2017).
Several values for one entry are separate records, joined by “and”; a condition that tells them apart may be missing. Equal entries are not always repeated.

Tests used:
[1] = molecular target: T1, Rvb2 (S. cerevisiae, UniProt Q12464 1-471); experiment: intact denatured mass spectrometry
[2] = molecular target: T1, Rvb2; experiment: native MS
[3] = molecular target: T2, Rvb1/Rvb2 complex (untagged hexamer) (S. cerevisiae, UniProt Q03940 1-463; Q12464 1-471); experiment: SEC-MALS
[4] = molecular target: T2, Rvb1/Rvb2 complex (untagged hexamer); experiment: native MS

T2 sequence (Q12464 whole entry, one chain of several): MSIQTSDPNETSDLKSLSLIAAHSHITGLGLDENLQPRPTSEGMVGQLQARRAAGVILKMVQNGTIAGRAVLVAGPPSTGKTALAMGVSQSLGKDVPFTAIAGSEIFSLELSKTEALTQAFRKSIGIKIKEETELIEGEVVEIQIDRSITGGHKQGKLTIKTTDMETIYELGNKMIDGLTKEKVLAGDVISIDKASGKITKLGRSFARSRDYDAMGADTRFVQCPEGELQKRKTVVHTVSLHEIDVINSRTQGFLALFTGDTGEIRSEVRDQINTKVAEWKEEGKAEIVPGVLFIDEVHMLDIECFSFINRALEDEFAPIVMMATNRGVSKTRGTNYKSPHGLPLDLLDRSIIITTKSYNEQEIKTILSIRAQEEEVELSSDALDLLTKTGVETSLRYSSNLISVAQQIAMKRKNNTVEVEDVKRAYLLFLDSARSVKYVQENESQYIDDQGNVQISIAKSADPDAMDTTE
T1 sequence (Q12464 whole entry): as the sequence (Q12464 whole entry, one chain of several) above

Row | stoichiometry N [1] | stoichiometry N [2] | stoichiometry N [3] | Binder | stoichiometry N [4]
1 | 1 Rvb1 per Rvb2 (3:3) | 1 Rvb1 per Rvb2 (3:3 in the hexamer) |  | Rvb1 (enzyme, S. cerevisiae, UniProt Q03940 1-463, looked up) MVAISEVKENPGVNSSNSGAVTRTAAHTHIKGLGLDESGVAKRVEGGFVGQIEAREACGVIVDLIKAKKMSGRAILLAGGPSTGKTALALAISQELGPKVPFCPLVGSELYSVEVKKTETLMENFRRAIGLRIKETKEVYEGEVTELTPEDAENPLGGYGKTISHVIVGLKSAKGTKTLRLDPTIYESIQREKVSIGDVIYIEANTGAVKRVGRSDAYATEFDLETEEYVPLPKGEVHKKKEIVQDVTLHDLDVANARPQGGQDVISMMGQLLKPKKTEITEKLRQEVNKVVAKYIDQGVAELIPGVLFIDEVNMLDIEIFTYLNKALESNIAPVVVLASNRGMTTVRGTEDVISPHGVPPDLIDRLLIVRTLPYDKDEIRTIIERRATVERLQVESSALDLLATMGTETSLRYALQLLAPCGILAQTSNRKEIVVNDVNEAKLLFLDAKRSTKILETSANYL | 
2 |  |  | ≥ 2 copies of Ino80INS per Rvb1/Rvb2 dodecamer | MBP-Ino80INS (insertion domain of the Ino80 ATPase, residues 1022-1294, MBP fusion with C-terminal histidine tag) (domain or fragment, yeast, UniProt P53115 1022-1294, looked up) VDSPFSFTTFGKTTSMLTASVANNNSSVISNSNMNLSSMSSNNISNGKFTDLIYSSRNPIKYSLPRLIYEDLILPNYNNDVDIANKLKNVKFNIFNPSTNYELCLFLSKLTGEPSLNEFFRVSTTPLLKRVIERTNGPKNTDSLSFKTITQELLEVTRNAPSEGVMASLLNVEKHAYEREYLNCIQRGYHPNVSAPPVTIEVLGSSHVTNSINNELFDPLISQALSDIPAITQYNMHVKKGIPVEDFPKTGLFPEPLNKNFSSNISMPSMDRF | 3 copies of Ino80INS per Rvb1/Rvb2 dodecamer and 1 copies of MBP-Ino80INS per Rvb1/Rvb2 hexamer and 2 copies of Ino80INS per Rvb1/Rvb2 dodecamer
